Target: TEMPOL-122-αS (N122C α-synuclein spin-labelled at position 122) (UniProt P37840)
Experiment: CW-EPR titration (site-directed spin labelling); apparent; TEMPOL-122-αS kept at 50 μM, poly-cation titrated at increasing molar ratios; LLPS buffer without crowder (no PEG); 25 °C; band III/band II amplitude fitted to an approximate model with n identical and independent binding sites

poly-L-lysine of 100 residues (peptide) was tested, and the Kd was 5 µM.
